Laboratory results taken from the nanobody polyreactivity screen of Harvey et al. (2022).

Test: yeast display, Sf9 membrane polyspecificity reagent, FACS + sequencing; frameworks hold sequencing errors
How it was run: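 In a synthetic yeast display library (Saccharomyces cerevisiae BJ5465), nanobody expression was induced with galactose for 36–48 hours. FACS gates were set low and high (top ~1%) using anti-HA fluorescence for expression and streptavidin fluorescence for binding of the Sf9 membrane reagent. Each polyreactivity label is drawn from the gate of origin.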

Row | Sequence | polyreactivity (PSR sort gate)
1 | QVQLVESGGGLVQAGGSLRLSCAASGFIFQYYAMGWYRQAPGKERELVAAISWRSTSTYYADSVKGRFTISRDNAKNTVYLQMNSLKPEDTAVYYCAASPGFSIGYEYWGQGTQVTVSS | low polyreactivity
2 | QVQLGESGGGLVQAGGSLRLSCAASGSTFKLYAMGWYRQAPGKERELVAAIRGSGGRTYYADSVKGRFTISRDNAKNTVYLQMNSLKPEDTAVYYCAAAYIGVWKYDSWGQGTQVTVSS | high polyreactivity
3 | QVQLVESGGGLVQAGGSLRLSCAASGSISSQYGMGWYRQAAGKERDLVATIRDGGRTNYADSVKGRFTISRDNGKNTVYLQMNSLKPEDTAVYYCAALYWYYYTWPLYDYWVQGTQVTVSS | low polyreactivity
4 | QVQLVESGGGLVQAGGSIRLSCAASGRISAPNAMGWYRQAAVKERELVAAISSGGRTNYADSVKGRFTISRDNEKNTVYLQMNSLKPEDTAVYYCAAYYYNDRMYYWGQGNQVTVSS | high polyreactivity
5 | QVQLVESGGGLVQAGGSLRLSCAASGFTISRNAMGWYRQAPGKERELVAAISQSGGSTYYADSVKGRFTISRDNAKNTVYLQMNSLKPEDTAVYYCAAQSFAQYGWRYGYWGQGTQVTVSS | high polyreactivity
6 | QVQLVESGGGLVQAGGSLRLSCAASGNTFLIYAMGWYRQAPGKERELVAGITSSGSTYYADSVKGRFTISRDNAKNTVYLQMNSLKPEDTAVFYCAAEYIFYLYYDTAELYDYWGQGTQVTVSS | low polyreactivity
7 | QVQLVESGGGLVQAGGSLRLSCAASGRIFGTNAMGWYRQAPGKERELVAAITWRGGSTYYADSVKGRFTISRDNAKNTVYLQMNSLKPVDTAVYYCAKDLVYWYQTIRAGISNYWGQGTQVTVSS | low polyreactivity
8 | QVQLVESGGGLVQAGGSLRLSCAASGFTFRYYAMGWYRQAPGKERELVAAISSGGSTYYADSVKGRFTISRDNAKNTVYLQMNSLKPEDTAVYYCATYLAEYGYWGQGTQVTVSS | high polyreactivity
9 | QVQLVESGGGLVQAGGSLRLSCAASGIIFEGNVMGWYRHAPAKERELVAAITSDTSTNYADSVKGRFTISRDNAKNTVYLQMNSLKPVDTAVYYFNAVICTDYYYSGTAEFYYWGQGTQVTVSS | low polyreactivity
10 | QVQLVESGGGLVQAGGSLRLSCDASGSTFDYYAMGWYRQAPGKERELVAGIDSAGSTNYADSVKGRFTISRDNAKNTVYLQMNSLKTGRYRGLYCNVGKTITTYAFPTFDYCGQGTQVTVSS | low polyreactivity
11 | QVQLVESGGGLVQAGGSLRLSCAASGSTFKNYAMGWYRQAPGKERELVAAINVSGARTYYADSVKGRFTISRDNAKNTVYLQMNSLKPEDTAVYYCAAYYSGVGYDYWGQGTQVTVSS | high polyreactivity
12 | QVQLLESGGGLVQAGRSLRLSCAASGRIFVYYAMGWYRQAPGQERELVATISWSGGSTYYADSVKGRFTISRDNAKNTVYLELNSLKPEDTAVYYCAAEKYISYYSVKRQENGYWGQGSQVTVSS | low polyreactivity
13 | QVQLVESGGGLVQAGGSLRLSCAASGSTFDIYAMGWYRQAPGKERELVAAISNSGDTYYADSVKGRFTISRDNAKNTVYLQMNSLKPEDTAVYYCNADFHDWFDYWGQGTQVTVSS | high polyreactivity
14 | QGQLVESAGGLVQAGGSLRLSCAAYGRIFGINAMGWYRQAPGKERELVAASTGGGSTYADSVKGRVTISRDNAKNTVYLHMNSLKPEATAVYYCAARKIWSSIAYYYWGQGTQVTVSS | low polyreactivity
15 | QVQLVESGGGLVQAGGSLRLSCAASGSTFTGNAMGWYRQAPGKEREFVAAITYSGTRTNYADSVKGRFTISRDNAKNTVYLQMNSLKPEDTAVYYCAARFPWRRRYYYWGQGTQVTVSS | high polyreactivity
16 | QVQLVESGGGLVQAGGSLRLSCAASGIIFAIYAMGWYRQAPGKESELVAAITWRGGSTYYADSVKGRFTISRDNAKNTVYLQRNSLKPEDTAVYYCDAVTKSLYGYDYWGQGSQVTVSS | low polyreactivity
17 | QVQLVESGGGLVQAGGSLRLSCAASGRTFGWYAMGWYRQAPGKERELVAAISSSDDSTYYADSVKGRFTISRDNAKNTVYLQMNSLKPEDTAVYYCAADGYPDPYKVRFGYWGQGTQVTVSS | low polyreactivity
18 | QVQLVESGGGLVQAGGSLRLSCAASGRTFGKYAMGWYRQAPRKEREFFAAISRSGGNTYYADTVKGRFTISRDNAKNTVYLQMTSLIPEDTAVYYCARGLSTYVLSHGLEYRTYFYWGQGTQVTVSS | high polyreactivity
19 | QVQLVESGGGLVQAGGSLRLSCDASGRIFRYYAMGWYRQAPGKERELVAAISSDGSTDYADSVKGRFTISRDNAKNTVYLQMNSLKPEDTAVYYCAASVVSYGHDYWGQGTQVTVSS | low polyreactivity
20 | QVQLVESGGGLVQAGGSLRLSCAASGRIFTRYAMGWYRQAPGKERELVAAINYRGSSTYYADSVKGRFTISRDNAKNTVYLQMNSLKPEDTAVYYCNTYGQTDTYWRYYYWGQGTQVTVSS | high polyreactivity
21 | QVQLLESGGGLVQAGGSLRLSCAASGSTFYFNAMGWYSQAPGKDSELVAGIRYSGSSTYYADSVKGRFTISRDNAKNTVYLQMHSLKPEDTAVYYCAASLWRWRFSRFGYWGQGTQVTVSS | high polyreactivity
22 | QVQLVESGGGLVQAGGSLRLICAASGSTFNIKAMGWYRQAPGKERELVAAISSRGGSTYYADSVKGRFTISRDNAKNTVYLQMNSLKPEDTAVYYCALAAGIPQRRYYYWGQGTQVTVSS | high polyreactivity

Row | Sequence | polyreactivity (PSR sort gate)
23 | QVQLVESGGGLVQAGGSLRLSCAASGITFIRYAMGWYRQAPGKERELVAAIDWDGSSTYYADSVKGRFTISRDNAKNTGYLQMNSLKPEDTSVYYCNTDYTGPDGTDDYDYWGQGTQVTVSS | low polyreactivity
24 | QVQLVESGGGLVQAGGSLRLSCAASGRIFRVYTMGWYRQAPGKERQLVATISYRGGSTYYADSVKGRFTISRDNAKNTVFLQMNSLTPDDNAVYNCAARLPADPGKTPGTLRTLDYWGQGTQVTVSS | high polyreactivity
25 | QVQLVESGGGLVQAGGSLRLSCAASGSIFVFYAMGWYRQAPGKERELVAAISYRGGSTYADSVKGRFTISRDNEKNTVYLQMNSLKPEDTAVYYCAARGLVRSYDYWGQGTQVTVSS | high polyreactivity
26 | QVQLVESGGGLVQAGGSLRLSCAASGRTFGGYAMGWYRQAPGKERELVAAIRSRGGRTYYADSVKGRFTISRDNAKNTVYLQMNSLKPEDTAVYYCATYGNKWGEDYWGQGTQVTVSS | high polyreactivity
27 | QVQLVESGGGLVQAGGSLRLSCAASGFIFTGNAMGWYRQAPGKERELVAAISKRGGRTYYADSVKGRFTISRDNAKNTVYLQMNSLKPEDTAVYYCAAVGYAYTYAEYYYWGQGTQVTVSS | high polyreactivity
28 | QVQLVESGGGLVQAGGSLRLSCAASGSTFVLNAMGWYRQSPGKERQLVAGISYGTGSTYYADSVKGRITISRDNAKNTVYLQMNSLKPEDTAVYFCAADNWAVNAYYWYIYDYWGQGTQVTVSS | low polyreactivity
29 | QVQLVESGGGLVQAGGSLRLSCAASGFTFGGYAMGWYRQAPGKESEFVAAITGTGGNTFYADSVKGRFTISRDNAKNTVYLQMNSLKPEDTAVYYCAKTWYPWSRYGYYRRYDSWGQGTQVTVSS | low polyreactivity
30 | QVQLVESGGGLVQAGGSLRLSCAASGIIFFIYAMGWYRQAPGKERELVARISIGGSTYYADSVKGRFTISRDNAKNTVYLQMNSLKPEDTAVYYCAARCGGLRATYHYWGQGTQVTVSS | low polyreactivity
31 | QVQLVESGGGLVQAGGSLRLSCAASGFIFYTYAMGWYRQAPGKERELVAAITWDGGSTYYADSVKGRFTISRDTAKNTVYLQMNSLKPEDTAVYYCNAEYGYIRGNYGYWGQGTQVTVSS | low polyreactivity
32 | QVQLVESGGGLVQAGGSLRLSCAASGFIFDYYAMGWYRQAPGTEREFVAAITWDGGSTYYADSVKGRFTISRDNAKNTVYLQMNSLKTEDTAVYYCAAETWGEYGYWGQGTQVTVSS | low polyreactivity
33 | QVQLVESGGGLVQAGGSLRLSCAASGRTLRSYAMGWYRQAPGKERELVARISSGGSTTYADSVKGRFTISRDNAKNTVYLQMNSLKPEDTAVYYCNAQLVYTVYRLRYYHWGQGTQVTVSS | high polyreactivity
34 | QVQLEESGGGLVQAGGSLRLSCAASGTILDSNAIGWYRQAPGKERELVAAITSCGSTYYADSVKGRFTISRDNAKNTVYLQMNSLKPEDTAVYYCAAAYLGYVAVQPSYEVGYWGQGTQVTVSS | low polyreactivity
35 | QVQLVESGGGLVQAGGILSLSCAASGSTFVGNAMGWYRPAPGKERELVATISNSGGRTYYADSVKGRFTISRDNAKNTVYLQMNSLKPEETAVYYCAADPPAFGPGYSFDYWGHGTQVTVSS | low polyreactivity
36 | QVQLVESGRGLVQAGGSLRLSCAASGSILTYYTMGWYRQAPGKERELVAAITRRGGSTYYADSVKGRFTISRDNAKNTVYLQMNRLKPEDTAVYYCNRVLSYHRHKLGMGYWGQGTHVTVSS | high polyreactivity
37 | QVQLVESGGGLVQAGGSLRLSCAASGSTFLSYAMGWYIQAPGKEREFVAAIPSIVGSTYYADSVKGRFTISRDNAKNTVYLQMNSLKPEDTAVYYCATDSYPGLNPDFDYWGQGTQVTVSS | low polyreactivity
38 | QVQLVESGGGLVQAGGSLRLSCAASGRTLFHYAMGWYRQAPGKERELVAAIRNSDGSTYYADSVKGRFTISRDNAKNSVYLQMNSLKPEDTGDYNCAAKYKYGTYNYWGQGSQVTVSS | high polyreactivity
39 | QVQLVESGGGLVQAGGSLRLSCAASGSIFHYNTMGWYRQAPGKERELVAAITYSGGSTYYADSVKGRYTISRDNAKNPVYLQMNSLKPEDTAVYYCAVRGPGTSTYWYHEYEYWGQGTQVTVSS | high polyreactivity
40 | QVQLVESGGGLVQAGGSLRLICAASGIIFDPNAMGWYRQAPGKERELVAAITHTGSTSYADSVKGRFTISRDNAKNTVYLQMNRLNPEDTAVYYCAAGTWVRAWYRYWYDFEYWGQGTQVTVSS | high polyreactivity
41 | QVQLVESGGGLVQAGGSLRLSCAASGSTFLPYAMGWYRQAPGKERELVAAIRWSVGSTYYADSVKGRFTISRDNAKNTVYLQMNSLKPEDTAVYYCAVTYGRGYEYWGQGTQVTVSS | high polyreactivity
42 | QVQLVESGGGLVQAGGSLRLSCAASGSTFSRYTMGWYRQAPGKERELVAGISGIGGSTDYADSVKGRFTISRDNAKNTVYLQMNSLKPEDTAVYYCNAEYTASYSRGFWRYYYPFEYWGQGTQVTVSS | high polyreactivity
43 | QVQLVESGGGLVQAGGSLRLSCAASGIIFRNYAMGWYRQAPGKERELVAAISRNGGSTYYADSVKGRFTISRDNAKNTVYLQMNSLKPEDTAVYYCAAVSPGTVTNGKSRDYWGQGTQVSVSS | high polyreactivity
